Test results as given in US9658208B2, “Methods and G proteins for screening and identifying ligands of G protein-coupled receptors” (Fred Hutchinson Cancer Research Center, priority 2011, dated 2017).

Target: T1, M2 muscarinic acetylcholine receptor (M2AchR) (Rattus norvegicus, UniProt P10980)
T1 construct: expressed in transfected cells; host or cells: HEK-293
T1 sequence (P10980 1-466): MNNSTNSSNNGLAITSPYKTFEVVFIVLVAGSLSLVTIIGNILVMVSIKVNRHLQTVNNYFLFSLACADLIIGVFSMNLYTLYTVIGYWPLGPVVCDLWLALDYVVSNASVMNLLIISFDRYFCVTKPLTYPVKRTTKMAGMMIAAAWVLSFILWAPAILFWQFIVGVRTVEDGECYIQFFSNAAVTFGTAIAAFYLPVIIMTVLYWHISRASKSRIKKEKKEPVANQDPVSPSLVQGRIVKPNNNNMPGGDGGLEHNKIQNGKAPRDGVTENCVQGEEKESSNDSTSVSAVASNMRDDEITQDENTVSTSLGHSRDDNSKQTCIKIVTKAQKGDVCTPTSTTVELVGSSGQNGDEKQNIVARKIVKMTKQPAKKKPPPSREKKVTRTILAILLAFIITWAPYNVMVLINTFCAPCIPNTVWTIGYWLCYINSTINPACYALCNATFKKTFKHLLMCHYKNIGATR
Assay: CRE-SEAP reporter gene assay, coupling of Gαs-based chimeric G proteins with M2AchR (transient)
Type: cell-based
Settings: HEK-293 cells; 10 uM acetylcholine
Experimental: The constructs encoding chimeric G proteins were made by substituting C-terminal amino acids of Gαs (SEQ ID NO: 1) with the corresponding C-terminal amino acid sequences of other Gα subunits. A first set of Gαs-based chimeric G proteins was prepared by designing constructs encoding seven Gαs-Gαi chimeras in which the C-terminal 5, 11, 13, 28, 65, 84, or 131 amino acids of Gαs were substituted with the corresponding C-terminal amino acids from the […]. Briefly, HEK-293 cells were cotransfected with chimera constructs together with the CRE-SEAP reporter gene construct and a cDNA encoding the M2 muscarinic acetylcholine receptor (M2AchR), a GPCR that couples to Gαo but not to Gαs and inhibits cAMP production. The transfected cells were cultured in the presence or absence of acetylcholine and then assayed for SEAP activity.
A series of chimeric constructs were prepared in which the final 13 C-terminal amino acids of the Gαs subunit were substituted with the final 13 C-terminal amino acids from Gαo, Gαz, Gαt, Gαq, or Gα15 subunits. Also tested were the Gαs-Gαi-13 and a chimera containing the last 5 C-terminal amino acids of Gαk (Gαs-Gαk-5 (SEQ ID NO: 2)). These chimeric constructs were tested for coupling with M2AchR. […] The Gαs-Gαo-13 (SEQ ID NO: […]) and Gαs-Gα15-13 (SEQ ID NO: 7) allowed approximately 2-fold increases in SEAP activity.
Chimeric G protein cloning: An insert containing rat Gαs cDNA was cut out using the restriction enzymes SaII and HinDIII, and ligated into pcDNA3.1(−) cut with XhoI and HinDIII. The chimeric G proteins with the desired C-terminal amino acid substitutions were prepared by PCR using Gαs as a template. More specifically, Gαs was PCR amplified between an internal EcoRI site and the stop codon, with a 3′ HinDIII placed immediately after the stop codon. A different 3′ oligonucleotide was used for each Gαs chimera and contained a 39 bp sequence that encoded the substituted amino acids at the C-terminus selected from the donor Gα subunit.
M2AchR GPCR cloning: Rat M2AchR receptor was cloned by PCR from cDNA templates (ATCC) and ligated into pcDNA 3.1(−) for expression in mammalian cells.
CRE-SEAP Reporter Gene Assay: 0.5×10^5 HEK-293 cells (ATCC) were seeded into each well of a 96 well plate 24 hours prior to transfection. cDNAs encoding M2AchR, SEAP reporters (Mercury Pathway Profiling System, BD Biosciences), and G protein chimeras were transfected into HEK-293 cells using lipofectamine reagent (Invitrogen) according to the manufacturer's protocols. […]
Following transfection, the cells were maintained for 48 hours in 200 ul serum free media containing 10 uM acetylcholine (Sigma). […] Fluorescence was then measured using a CytoFluor 4000 multi well plate reader (Applied Biosystems).

B1: Gαs-Gαt-13: Gαs-based chimeric G protein, final 13 C-terminal amino acids substituted with those of Gαt (protein)
chain: MGCLGNSKTEDQRNEEKAQREANKKIEKQLQKDKQVYRATHRLLLLGAGESGKSTIVKQMRILHVNGFNGEGGEEDVPDYASNSDGEKATKVQDIKNNLKEAIETIVAAMSNLVPPVELANPENQFRVDYILSVMNVPNFDFPPEFYEHAKALWEDEGVRACYERSNEYQLIDCAQYFLDKIDVIKQADYVPSDQDLLRCRVLTSGIFETKFQVDKVNFHMFDVGGQRDERRKWIQCFNDVTAIIFVVASSSYNMVIREDNQTNRLQEALNLFKSIWNNRWLRTISVILFLNKQDLLAEKVLAGKSKIEDYFPEFARYTTPEDATPEPGEDPRVTRAKYFIRDEFLRISTASGDGRHYCYPHFTCAVDTENIRRVFNDCRDIIIKENLKDCGLF
modifications: Chimeric protein
notes: Gαs-based chimeric G protein, final 13 C-terminal amino acids substituted with those of Gαt
ligand induced increases in SEAP activity mediated by M2AchR (in words): highest responses
